Measured values from the Immune Epitope Database (IEDB).
Values belong to the sequence of their own block, whether it stands above or below them.

How the values were obtained:
HLA-B*35:01 = assay: IEDB peptide-MHC binding, purified MHC/competitive/radioactivity; filed as Kd, often an IC50 or EC50 that approximates it; ≥ and ≤ were set here for values at or beyond the usual limits of such assays
HLA-B*53:01 = assay: as above
HLA-A*68:02 = assay: as above
HLA-A*02:06 = assay: as above
HLA-B*08:01 [1] = assay: IEDB peptide-MHC binding, purified MHC/direct/fluorescence; filed as Kd, often an IC50 or EC50 that approximates it; ≥ and ≤ were set here for values at or beyond the usual limits of such assays
HLA-A*31:01 = assay: as above; conditions: source organism: Pseudomonas aeruginosa UCBPP-PA14
HLA-B*07:02 [2] = assay: as above
HLA-B*15:01 = assay: as above
HLA-B*27:05 = assay: as above
HLA-B*58:01 = assay: as above
HLA-A*26:01 [3] = assay: as above
HLA-B*40:01 = assay: as above
HLA-A*69:01 = assay: as above
HLA-A*02:01 [4] = assay: as above
HLA-A*03:01 = assay: as above
HLA-A*11:01 = assay: as above; conditions: source organism: Pseudomonas aeruginosa UCBPP-PA14
HLA-A*01:01 = assay: as above
HLA-B*07:02 [5] = assay: IEDB peptide-MHC binding, purified MHC/competitive/radioactivity; filed as Kd, often an IC50 or EC50 that approximates it; ≥ and ≤ were set here for values at or beyond the usual limits of such assays
HLA-B*51:01 = assay: as above; conditions: source organism: Dengue virus 2 Jamaica/1409/1983
HLA-A*02:01 [6] = assay: IEDB peptide-MHC binding, purified MHC/competitive/fluorescence; ≥ and ≤ were set here for values at or beyond the usual limits of such assays
HLA-A*24:02 = assay: as above
HLA-A*26:01 [7] = assay: IEDB peptide-MHC binding, purified MHC/competitive/radioactivity; filed as Kd, often an IC50 or EC50 that approximates it; ≥ and ≤ were set here for values at or beyond the usual limits of such assays
HLA-B*44:02 = assay: IEDB peptide-MHC binding, purified MHC/direct/fluorescence; filed as Kd, often an IC50 or EC50 that approximates it; ≥ and ≤ were set here for values at or beyond the usual limits of such assays; conditions: source organism: Giardia lamblia ATCC 50803
HLA-B*08:01 [8] = assay: IEDB peptide-MHC binding, purified MHC/competitive/radioactivity; filed as Kd, often an IC50 or EC50 that approximates it; ≥ and ≤ were set here for values at or beyond the usual limits of such assays; conditions: source organism: Dengue virus 2 Jamaica/1409/1983
HLA-A*02:02 = assay: as above; conditions: source organism: Lassa virus Josiah
HLA-A*02:03 = assay: as above; conditions: source organism: Lassa virus Josiah
[9] = source organism: Dengue virus 1 Brazil/97-11/1997
[10] = source organism: Dengue virus 3 Martinique/1243/1999
[11] = source organism: Pseudomonas aeruginosa UCBPP-PA14
[12] = source organism: Dengue virus 2 Jamaica/1409/1983
[13] = source organism: Vaccinia virus Copenhagen
[14] = source organism: Sudan ebolavirus
[15] = source organism: Zaire ebolavirus
[16] = source organism: Giardia lamblia ATCC 50803
[17] = source organism: Dengue virus 4 Philippines/H241/1956
[18] = source organism: Vaccinia virus
[19] = source organism: Lassa virus Josiah

Sequence: IPATLFVWY
Kd (HLA-B*35:01; [9]): 0.00339 µM | Kd (HLA-B*53:01; [9]): 0.01 µM

Sequence: WVMKIGIGV
Kd (HLA-A*68:02; [10]): 0.00527 µM | Kd (HLA-A*02:06; [10]): 0.00138 µM

Kd (HLA-B*08:01 [1]; [11]): ≥ 20 µM | Kd (HLA-A*31:01): ≥ 20 µM | Kd (HLA-B*07:02 [2]; [11]): ≥ 20 µM | Kd (HLA-B*15:01; source organism: Pseudomonas aeruginosa): 0.3 µM | Kd (HLA-B*27:05; [11]): ≥ 20 µM | Kd (HLA-B*58:01; [11]): ≥ 20 µM | Kd (HLA-A*26:01 [3]; [11]): ≥ 20 µM | Kd (HLA-B*40:01; [11]): ≥ 20 µM | Kd (HLA-A*69:01; [11]): ≥ 20 µM | Kd (HLA-A*02:01 [4]; [11]): ≥ 20 µM | Kd (HLA-A*03:01; [11]): ≥ 20 µM | Kd (HLA-A*11:01): ≥ 20 µM | Kd (HLA-A*01:01; [11]): ≥ 20 µM
Sequence: GLGGDASAY

Sequence: VPTSRTTWSI
Kd (HLA-B*07:02 [5]; [12]): 0.0503 µM | Kd (HLA-B*51:01): 0.0525 µM

Sequence: YQLLEAVYG
IC50 (HLA-A*02:01 [6]; [13]): 31.1 µM

Sequence: TTELRTYTI
IC50 (HLA-A*02:01 [6]; [14]): ≥ 94.5 µM | IC50 (HLA-A*24:02; [14]): 0.925 µM

Sequence: MPTVIEHLER
Kd (HLA-B*35:01; [10]): 0.871 µM | Kd (HLA-B*53:01; [10]): 7.05 µM

Sequence: ELSFEALSL
IC50 (HLA-A*02:01 [6]; [14]): 23.9 µM | IC50 (HLA-A*24:02; [14]): 39.5 µM

Sequence: LITSTVTGI
IC50 (HLA-A*02:01 [6]; [14]): 1.64 µM | IC50 (HLA-A*24:02; [14]): 17.9 µM

Sequence: ELLPAVSSG
IC50 (HLA-A*02:01 [6]; [15]): ≥ 194 µM

Sequence: SPPEVERAVL
Kd (HLA-B*07:02 [5]; [9]): 0.0197 µM

Sequence: STLAGVNVG
IC50 (HLA-A*02:01 [6]; [15]): ≥ 105 µM

Sequence: HTIENTTANI
Kd (HLA-A*68:02; [9]): 0.00175 µM | Kd (HLA-A*26:01 [7]; [9]): 2.07 µM

Sequence: EPIEGKVVQY
Kd (HLA-A*26:01 [7]; [10]): 2.73 µM | Kd (HLA-B*35:01; [10]): 0.491 µM | Kd (HLA-B*53:01; [10]): 5.03 µM

Sequence: NADIGEWAF
IC50 (HLA-A*24:02; [14]): 55.5 µM

Sequence: DYIYLPLLK
Kd (HLA-B*08:01 [1]; [16]): ≥ 20 µM | Kd (HLA-B*07:02 [2]; [16]): ≥ 20 µM | Kd (HLA-B*15:01; [16]): ≥ 20 µM | Kd (HLA-B*27:05; [16]): ≥ 20 µM | Kd (HLA-B*58:01; [16]): ≥ 20 µM | Kd (HLA-A*26:01 [3]; [16]): ≥ 20 µM | Kd (HLA-B*40:01; [16]): ≥ 20 µM | Kd (HLA-A*69:01; [16]): ≥ 20 µM | Kd (HLA-A*02:01 [4]; [16]): ≥ 20 µM | Kd (HLA-A*03:01; [16]): 2.22 µM | Kd (HLA-B*44:02): ≥ 20 µM | Kd (HLA-A*01:01; [16]): ≥ 20 µM

Sequence: SLEEEYPPW
IC50 (HLA-A*02:01 [6]; [15]): ≥ 214 µM | IC50 (HLA-A*24:02; [15]): ≥ 179 µM

Sequence: TPQDNQLIYV
Kd (HLA-B*07:02 [5]; [17]): 7.76 µM

Sequence: TETKITFAL
IC50 (HLA-A*02:01 [6]; [13]): ≥ 83.3 µM | IC50 (HLA-A*24:02; [13]): 19 µM

Sequence: DTTIGEWAF
IC50 (HLA-A*24:02; [15]): 25.5 µM

Sequence: IYTEGLMHN
IC50 (HLA-A*24:02; [14]): 4.41 µM

Sequence: RLRMDKLQL
Kd (HLA-B*08:01 [8]): 0.175 µM | Kd (HLA-B*07:02 [5]; [12]): 0.149 µM

Sequence: SPIVDRKGKV
Kd (HLA-B*07:02 [5]; [12]): 0.545 µM

Sequence: KEGAFFLYD
IC50 (HLA-A*02:01 [6]; [15]): ≥ 3840 µM | IC50 (HLA-A*24:02; [15]): 46 µM

Sequence: YRSGTETKI
IC50 (HLA-A*24:02; [13]): ≥ 315 µM

Sequence: TPHSGEEHAV
Kd (HLA-B*07:02 [5]; [12]): 0.162 µM

Sequence: RLEEEINNQ
IC50 (HLA-A*02:01 [6]; [18]): ≥ 195 µM | IC50 (HLA-A*24:02; [18]): 32.6 µM

Sequence: ALMDCIMFDA
Kd (HLA-A*68:02; [19]): ≥ 5 µM | Kd (HLA-A*02:02): 0.00525 µM | Kd (HLA-A*02:03): 0.00962 µM | Kd (HLA-A*02:06; [19]): 0.0336 µM

Sequence: ESGAVKYLE
IC50 (HLA-A*24:02; [15]): ≥ 209 µM

Sequence: IIQAFEAGV
IC50 (HLA-A*02:01 [6]; [15]): 2.47 µM

Sequence: EPWLSSKPEF
Kd (HLA-B*35:01; [17]): 1.38 µM | Kd (HLA-B*53:01; [17]): 0.684 µM
